Results published in patent US20210130459A1 (YISSUM RESEARCH DEVELOPMENT COMPANY OF THE HEBREW …, published 2021).

T1: murine Nectin4 expressed on cells (murine, UniProt Q8R007 31-508)
T1 construct: whole, on cells; also called mNectin4
T1 sequence (looked up): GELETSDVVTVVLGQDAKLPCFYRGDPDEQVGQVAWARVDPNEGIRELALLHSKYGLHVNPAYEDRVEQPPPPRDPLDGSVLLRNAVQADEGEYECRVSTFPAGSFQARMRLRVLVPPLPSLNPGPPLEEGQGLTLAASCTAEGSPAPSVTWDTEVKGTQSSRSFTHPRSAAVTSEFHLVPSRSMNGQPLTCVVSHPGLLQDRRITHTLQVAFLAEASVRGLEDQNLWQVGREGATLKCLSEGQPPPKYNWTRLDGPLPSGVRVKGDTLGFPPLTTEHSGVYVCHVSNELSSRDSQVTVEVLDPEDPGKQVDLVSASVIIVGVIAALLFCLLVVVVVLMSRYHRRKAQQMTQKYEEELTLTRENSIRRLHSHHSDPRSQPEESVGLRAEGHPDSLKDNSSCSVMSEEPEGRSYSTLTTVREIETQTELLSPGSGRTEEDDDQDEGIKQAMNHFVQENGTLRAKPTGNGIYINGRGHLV

T2: human Nectin4 expressed on cells (human, UniProt Q96NY8 32-510)
T2 construct: whole, on cells; also called PVRL4; native human Nectin-4
T2 sequence (looked up): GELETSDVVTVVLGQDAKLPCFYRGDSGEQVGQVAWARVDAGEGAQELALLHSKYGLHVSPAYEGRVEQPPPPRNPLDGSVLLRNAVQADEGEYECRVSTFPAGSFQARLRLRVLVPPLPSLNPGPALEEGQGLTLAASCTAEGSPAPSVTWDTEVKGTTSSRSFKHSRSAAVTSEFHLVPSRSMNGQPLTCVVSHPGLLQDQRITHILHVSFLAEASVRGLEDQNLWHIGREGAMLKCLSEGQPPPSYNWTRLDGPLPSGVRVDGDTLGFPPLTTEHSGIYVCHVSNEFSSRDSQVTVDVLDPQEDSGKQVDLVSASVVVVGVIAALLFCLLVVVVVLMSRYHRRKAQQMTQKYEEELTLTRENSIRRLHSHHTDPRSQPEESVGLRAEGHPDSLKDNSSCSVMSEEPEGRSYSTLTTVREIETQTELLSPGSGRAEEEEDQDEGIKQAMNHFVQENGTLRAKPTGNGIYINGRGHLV


Assays:
[1] = biological target: human Nectin4-Ig (Nectin4-Fc fusion protein) (human) (UniProt Q96NY8); experiment: microscale thermophoresis with fluorophore-labeled human Nectin4-Ig
[2] = biological target: T1, murine Nectin4 expressed on cells; experiment: FACS staining of RAJI cells transfected with murine Nectin4
Method: (A) Western blots of RAJI cells transfected with murine Nectin4 (indicated as mNectin4) and detected with commercial anti-murine Nectin4 mAb (Clone 356704 which doesn't work for flow cytometry). Expression was compared to RAJI cells expressing empty vector (indicated as Empty). Staining for hGAPDH was used as loading control. (B-C) FACS staining of RAJI cells transfected with murine Nectin4 (black line histograms). Cells were stained with 0.2 μg of (B) clone hNec4.01 or (C) clone hNec4.05.
RAJI cells were transfected with murine Nectin4 (black line histograms). First, RAJI cells transfected with murine Nectin4 lysates was used in Western blot assay with a commercial anti murine Nectin4 mAb (Clone 356704) in order to verify murine Nectin4 expression (A). Next, the cells were stained with 0.2 μg of (B) clone hNec4.01 or (C) clone hNec4.05.

[3] = biological target: T2, human Nectin4 expressed on cells; experiment: FACS blocking assay, RAJI cells transfected with human Nectin4, 1 µg clone, then 3 µg Nectin1-Ig; blocked ligand Nectin1-Ig
Method: FIGS. 6A-6C Blocking of Nectin4-Nectin1 interactions. (A-B) FACS staining of RAJI cells transfected with human-Nectin4. Cells were pre-incubated with 1 μg of (A) clone hNec4.01, or (B) clone hNec4.05 and then incubated with 3 μg of Nectin1-Ig (black line histograms). Staining without blocking appears as gray line. Grey filled histograms are background control staining of secondary antibody only. (C) Mean Fluorescence Intensity (MFI) values of FACS staining of A and B.
For staining of human TIGIT-Ig or human Nectin1-Ig, cells were incubated on ice for 1 hour with 3 μg of TIGIT-Ig per 100,000 cells. Detection was performed with a secondary Alexa Fluor 647 anti-human (Jackson ImmunoResearch) for 30 min on ice. For blocking experiments cells were pre-incubated with 1 μg of the indicated antibody prior to the TIGIT-Ig or human Nectin1-Ig staining. In some cases, cells were incubated with 8 ug/ml of the indicated Ab together with human TIGIT-Ig or human Nectin-1-Ig (at 20 ug/ml). Detection of ligand binding was performed with a secondary Alexa Fluor 647 anti-human Ab (Jackson ImmunoResearch).
The ability to the anti-Nectin4 to block Nectin4-Nectin1 interactions was also determined. […] Cells were Pre-incubated with 1 μg of (FIG. 6A) clone hNec4.01 or (FIG. 6B) clone hNec4.05 and then incubated with 3 μg of Nectin1-Ig (black line). Staining without blocking appears as gray line. […]

[4] = biological target: T1, murine Nectin4 expressed on cells; experiment: FACS titration on CHO cells transfected with murine Nectin-4, compared with MDA-MD-453 cells
Method: (§1) FIGS. 8A-8C Antibody clones hNec4.05 and hNec4.11 binding to cell surface Nectin-4. (A) Antibody binding to Nectin-4 expressed on the human cell line MDA-MD-453 was evaluated by FACS analysis. […] (B) Antibody binding to CHO cells transfected with Cynomolgus (Cyno)-Nectin-4 and analyzed as in A. (C) Antibody binding to CHO cells transfected with murine-Nectin-4 and analyzed as in A. ND—not detected.
(§2) Binding of murine anti-human Nectin-4 clones hNec4.05 and hNec4.11 to Nectin-4 expressed on the human cell line MDA-MD-453 was evaluated by FACS analysis. […] FIG. 8B depicts antibody binding to CHO cells transfected with Cynomolgus (Cyno)-Nectin-4 and FIG. 8C depicts antibody binding to CHO cells transfected with murine-Nectin-4. […] This may be important for pre-clinical studies of the Ab.

[5] = biological target: T2, human Nectin4 expressed on cells; experiment: FACS titration (20-0.01 nM) on the human cell line titled 'MDA-MD-543' on the sheet (MDA-MD-453 in the legend)
Method: as §1, §2

[6] = biological target: T2, human Nectin4 expressed on cells; experiment: FACS titration on MDA-MD-453 cells
Method: as §1, §2

Binder | Kd [1] [nM] | binding result [2] | binding result [3] | binding result [6] | other results
monoclonal antibody hNec4.05 (antibody, IgG1, V domains shown, also called Nectin4.05; Clone 5) VH: QVQLQQSGPELVKPGASVRISCKASGYTFTTYYIHWVKQRPGQGLEWIGWIYPGNVNTKNNEKFKVKATLTADKSSSTAYMQLSSLTSEDSAVYFCARSNPYVMDYWGQGTSVTVSS VL: SIVMTQTPKFLLVSAGDRVTITCKASQSVSNDVAWYQQKPGQSPKLLIYYASNRYTGVPDRFTGSGYGTDFTFTISAVQAEDLAVYFCQQDYSSPYTFGGGTKLEIK | 0.272 | no binding (tested: 0.2 µg) | binds |  | 
monoclonal antibody hNec4.01 (antibody, IgG1, V domains shown, also called Nectin4.01; Clone 1) VH: EVQLQQSGPELVKPGASVKIACRASGYTFTAYNIHWVSQRHGKSLEWIGYIYPNNGGSGYNQKFMNKATLTVDHSSNTAYMELRSLTSEDSAVYYCAIFDYDEAWFIYWGQGTLVTVSA VL: ENVLTQSPEIMSASPGEEVTMTCSASSSVSYMHWFQQKSTISPKLWIYDTSKLASGVPGRFSGSGSGKSYSLTIRNMEAEDVATYYCFQGSGSPYTFGGGTKLEIK | 0.107 | no binding (tested: 0.2 µg) | binds |  | 
monoclonal antibody hNec4.11 (antibody, V domains shown, also called Nectin4.11; clone 11) VH: QVQLQQSGPELVKPETSVKISCKASGYTFTSYYIHWVKQRPGQGLEWIGWIYPGNVNTKYNERFKGKATLTADKSSNTAHMQLTSLTSEDSAVYFCARSNPYVMDYWGQGTSVTVSS VL: SIVMTQTPKFLLVSAGDRVTITCKASQSVNNDVAWYQQKPGLSPELLMYYASNRFTGVPDRFTGSGYGTDFTFTISSVQAEDLAIYFCQQAYRSPYTFGGGTKLEIQ |  |  |  |  | fold EC50 against the EC50 for the human target [4]: ~10 fold; binding result [5]: binds
chimeric clone hNec4.05hIgG1 (antibody, V domains shown, also called human IgG1 chimeric Ab clone hNec4.05; chimeric version of hNec4.05) VH: QVQLQQSGPELVKPGASVRISCKASGYTFTTYYIHWVKQRPGQGLEWIGWIYPGNVNTKNNEKFKVKATLTADKSSSTAYMQLSSLTSEDSAVYFCARSNPYVMDYWGQGTSVTVSS VL: SIVMTQTPKFLLVSAGDRVTITCKASQSVSNDVAWYQQKPGQSPKLLIYYASNRYTGVPDRFTGSGYGTDFTFTISAVQAEDLAVYFCQQDYSSPYTFGGGTKLEIK |  |  |  | binds | 
chimeric clone hNec4.11hIgG1 (antibody, V domains shown, also called human IgG1 chimeric Ab clone hNec4.11; chimeric version of hNec4.11) VH: QVQLQQSGPELVKPETSVKISCKASGYTFTSYYIHWVKQRPGQGLEWIGWIYPGNVNTKYNERFKGKATLTADKSSNTAHMQLTSLTSEDSAVYFCARSNPYVMDYWGQGTSVTVSS VL: SIVMTQTPKFLLVSAGDRVTITCKASQSVNNDVAWYQQKPGLSPELLMYYASNRFTGVPDRFTGSGYGTDFTFTISSVQAEDLAIYFCQQAYRSPYTFGGGTKLEIQ |  |  |  | binds | 
